Measurements: the Immune Epitope Database (IEDB)

molecular target: HLA-B*07:02; assay: IEDB peptide-MHC binding, purified MHC/competitive/fluorescence; ≥ and ≤ were set here for values at or beyond the usual limits of such assays; details: source organism: Homo sapiens

| Sequence | IC50 [nM] |
| --- | --- |
| APKRPPSAF | 176 |
| IATVDSYVI | ≥ 219000 |
| LPTSHPKIV | 3560 |
| NPNQNKNVAL | 1580 |
| SPNQARAQAAL | 926 |
| STTAICATGL | ≥ 248000 |

Further sequences by falling IC50, results first:

| IC50 [nM] | Sequence |
| --- | --- |
| 466 | TPQSNRPVM |
| 258 | GPRTAALGLL |
| 228 | RPYSNVSNL |
| 215 | APAYSRAL |
| 210 | AARPATSTL |
